Source: patent publication US20220403048A1, “BINDING MOLECULES TO ARGINASE II [ARG2]” (Cancer Research Technology Limited, priority 2019, published 2022)
One block for each binder: values may come before it.

Legend:
[1] = molecular target: biotinylated recombinant human trimeric ARG2 enzyme (Avi-huARG2-His10) (human) (UniProt P78540); test: HTRF epitope competition, scFv titrated, competitor C0020187 IgG, on biotinylated human trimeric ARG2
[2] = molecular target: recombinant human trimeric ARG2 enzyme (construct not given) (human) (UniProt P78540); test: cell-based or functional assay
[3] = molecular target: recombinant human trimeric ARG2 enzyme (construct not given) (human) (UniProt P78540); test: dynamic light scattering, 8 µM each
Target sequence in this assay (P78540 23-354, form in doubt): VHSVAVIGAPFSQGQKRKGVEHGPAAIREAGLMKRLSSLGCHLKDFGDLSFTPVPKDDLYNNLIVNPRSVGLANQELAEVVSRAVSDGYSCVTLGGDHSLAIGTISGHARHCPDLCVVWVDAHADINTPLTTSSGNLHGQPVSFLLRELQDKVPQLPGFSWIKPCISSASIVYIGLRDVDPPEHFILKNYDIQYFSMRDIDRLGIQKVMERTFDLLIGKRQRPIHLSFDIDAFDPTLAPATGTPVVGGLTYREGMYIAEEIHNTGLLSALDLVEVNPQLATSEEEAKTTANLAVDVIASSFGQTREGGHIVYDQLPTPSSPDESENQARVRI

[4] = molecular target: recombinant human trimeric ARG2 enzyme (construct not given) (human) (UniProt P78540); test: size-exclusion chromatography, 8 µM each
Target sequence in this assay (P78540 23-354, form in doubt): as above

Chain of biotinylated recombinant human trimeric ARG2 enzyme (Avi-huARG2-His10) (human) (P78540 other isoform, or with tags, fused parts or gaps limits assumed, form in doubt): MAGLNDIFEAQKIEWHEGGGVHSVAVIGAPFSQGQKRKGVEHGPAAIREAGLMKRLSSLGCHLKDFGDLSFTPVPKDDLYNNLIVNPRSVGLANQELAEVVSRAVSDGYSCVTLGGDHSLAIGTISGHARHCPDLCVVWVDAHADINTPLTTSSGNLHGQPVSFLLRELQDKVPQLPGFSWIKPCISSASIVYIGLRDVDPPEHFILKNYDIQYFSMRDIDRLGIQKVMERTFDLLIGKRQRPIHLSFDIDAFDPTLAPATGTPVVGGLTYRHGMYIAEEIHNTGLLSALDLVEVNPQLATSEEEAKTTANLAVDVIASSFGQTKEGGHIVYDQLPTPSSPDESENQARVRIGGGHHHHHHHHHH

IC50 [1]: 57.8 nM | Trimeric human ARG2 EIA IC50 [2]: 97.6 nM
B1: C0021142 scFv (scFv, part only; not given: linker, domain order, tag, V domains shown, not shown: another chain or arm of the molecule; small tags and cut ends)
VH: EVQLLESGGGLVQPGGSLRLSCAASGFTFSSYAMSWVRQAPGKGLEWVSAHTHSPGSTYYADSVKGRFTISRDNSKNTLYLQMNSLRAEDTAVYYCARLRADLGLYMDLWGRGTLVTVSS
VL: QSVLTQPPSVSAAPGQKVTISCSGSSSNIGNHYVSWYQQLPGTAPKLLIYDNSERPSGVPDRFSGSKSGTSATLGITGLQTGDEADYYCGTWDSSLSALVFGGGTKLTVL

increase in average hydrodynamic radius (Rh) against ARG2-C0020187 Fab complexes [3]: 1.5 nm | SEC peak of the 1:1 molar ARG2:Fab mixture [4]: 275 kDa
B2: C0021139 Fab (Fab, V domains shown)
VH: EVQLLESGGGLVQPGGSLRLSCAASGFTFQYDYQVWVRQAPGKGLEWVSAISGSGGSTYYADSVKGRFTISRDNSKNTLYLQMNSLRAEDTAVYYCARLRADLGLYMDLWGRGTLVTVSS
VL: QSVLTQPPSVSAAPGQKVTISCSGSSSNIGNHYVSWYQQLPGTAPKLLIYDNSERTSGIPDRFSGSKSGTSATLGITGLQTGDEADYYCGTWDELTSNLVFGGGTKLTVL

EC50, In Presence of rhARG2 (T cell proliferation) [2]: > 2000 nM | Maximum % Proliferation, In Presence of rhARG2 [2]: 49%
B3: C0020065 recombinant human IgG1 (antibody, V domains shown)
VH: GVNLRESGGGVVQPGRSLRLSCAASGFTFSSYAMHWVRQAPGKGLEWVAVISYDGSNKYYVDSVKGRFTISRDNSKNTLYLQMNSLRAEDTAVYYCARDSSQLWFDYWGRGTLVTVSS
VL: QSVVTQPPSVSGAPGQRVTISCTGSSSNIGTGYDVHWYQQLPGTAPKLLIYGNSNRPSGVPDRFSGSKSGTSASLAITGLQAEDEADYYCQSYDSSLSGSVVFGGGTQLTVL
